Experimental data as given in the nanobody polyreactivity screen of Harvey et al. (2022).

Assay: yeast display, Sf9 membrane polyspecificity reagent, FACS + sequencing; frameworks hold sequencing errors
Outline: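 Using colony PCR, genes from sorted yeast display clones were amplified, then sequenced on MiSeq at 2 × 250 and filtered by CDR length. The clones had been stained with 10% biotinylated, detergent-solubilized Sf9 membrane reagent for 1 hour at 4 °C and sorted by FACS into low and high (top ~1%) gates on anti-HA and streptavidin fluorescence. Polyreactivity labels come from the gate of origin.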

Row | Sequence | polyreactivity (PSR sort gate)
1 | QVQLVESGGGLVQAGGSLRLSCAASGRIFDDNTMGWYRQAPGKEREVVAAISVSGGRTYYADSVKGRFTISRDNAKNTVYIQMNSLKPEDTAVYYCNARLGPFWDYRLKNGTHDYWGQGTQVTVAS | high polyreactivity
2 | QVQLVESGGGLVQAGGSLRCSCAASGFTFYSYAMGWYRQAPGKERELVAAITESGGSTYYADSVKGRFTISRDNAKNTVYLQMNSLKPEDTAVYYCAAQFAQRPQYYYFVWYDYWGQGTQVTVSS | low polyreactivity
3 | QVQLVESGGGLVQAGGSLRLSCAASGSTFRRNAMGWYRQAPGKERELVAAISRSGGSTYYADSVKGRFTISRDNAKNTVYLQMNSLKPEDTAVYYCAADAARTSHWSGDYWGQGTQVTVSS | high polyreactivity
4 | QVQLVESGGGLVQAGGSLRLSCAASGSIFAVYAMGWYRQAPGKERELVATISGRGGSTYYADSVKVRFTISRDNAKNTVYLQMNSLKPEDTAVYYCNARVLFRRERMDSWGQGTKVTVSS | high polyreactivity
5 | QVQLVESGGGLVQAGGSLRLSCAASGRTFYYNGMGWYRQAPGKERELVATITNGGSTNYADSVKGRFTISRDNAKNTVYLQMNSLKPEDTAVYYCAKTLASDCYDYWGQGTQVTVSS | low polyreactivity
6 | QVQLVESAGGLVQAGGSLRLSCAASGSIFPAYAMGWYRQAPGKERELVASITTGDRTYYADSVKGRFTISRDNAKNTVYLQMNSLKPEDTAVYYCAALYYVHYYSAHYPTLSRHEYWGPGTQVTVSS | high polyreactivity
7 | QVQLVESGGGLVQAGGSLRLSCAASGRIFGLYAMGWYRQAPGKERELVATITRRGGSTYYADSVKGRFTISRDNAKNTVYLQMNSLKPEDTAVYYCNVRTLVQHHSSYSSRYDSWGQGTQVTVSS | high polyreactivity
8 | QVQLVESGGGLVQAGGSLRLRCAASGSNFYQNAMGGYRQAPGKETALLATIDVNTVSTSYADSVKGRFTISRDNAKNTVYLQMHSLKPEDTAVYYCAAGPDVGVLGDRDPWKNVKYDYWGQGTQVTASS | low polyreactivity
9 | QVQLVESGGGLVQAGGSLRLSCDASGRIFFNTMGWYRQAPGKERELVAAISSGGSTSYADSVKGRFTISRDNAKNTVYLQMNSLKPEDTAVYYCADLKLYIYDYWGQGTQVTVSS | high polyreactivity
10 | QVQLQESGGCLVQAGGSLRLSCAASGPISRRSTMGWYSQAPGKERELVTAITRGTNTNYADSVKGRFTISRDNAKNTEYLQMNSLKTEDTAVYYCAAYGVLKPSRGDAVFHRYWGQGTQVTVSS | low polyreactivity
11 | QVQLVESGGGLVQAGGSLRLSCAASGRIFRGYAMGWYRQAPGKERELVARITSGGRTYYADSVKGRFTISRDNAKNTVYLQMNSLKPEDTAVYYCATVGRGYDERHNYWGQGTQVTVSS | high polyreactivity
12 | QVQVVESGGGLVQPGGSLRVSCAASGSTFIAYVKGWSRQAPGKEWELVAAISWSGSNTYYADSVKGRFTISRDNAKITVYFQMNCLKPEDTAVYYCNARSFAPDKKYDYWGQGTQVTVSS | low polyreactivity
13 | QVQLVESGGGLDQAGGSLRLSCAASGRTFRNYVMGWYRQAPGKERELVAAISRSGGSTYYADSVKGRFTISRDNAKNSVYLQMNSLKPEDTAVYYCNTVTTYDVEYWGQGTQVTVSS | high polyreactivity
14 | QVQLVESGGGLVQAGGSLRLSCAASGFIFGRNVMGWYRQAPGKERELVASISRSGGRTTYADSVKGRFTISRDNAKNTVYLLMNSLKPEDTAVYYCAKGQYQWERYVSHADYDWGQVTQVTVSS | high polyreactivity
15 | QVQLVESGGGLVQAGGSLRLSCAASGRTFGSYAMGWYRQAPGKERELVAAISYRGSTYYADSVKGRFTISRDNAKNTVYLQMNSLKPEDTAVYYCAARSYGGYGYWGQGTQVTVSS | high polyreactivity
16 | QVQLVESGGGLVQAGGSLRLSCAASGRIFFYYAMGWYRQAPGKERELVAAISKSGGRTYYADSVKGRFTISRDNAKNTVYLQMNSLKPEDTAVYYCAAYSAHDSDYWGQGTQVTVSS | high polyreactivity
17 | QVQLVESGGGLVQAGGSLRLSCAASGSIFVNNAMGWYRQAPGKERELVAAISRSGTRTYYADSVKGRFTISRDNAKNTVYLQMNSLKPEDTAVYYCAVDYYYRMDYWGQGTQVTVSS | high polyreactivity
18 | QVQLVESGGGLVQAGGSLRLSCAASGITFIYNAMGWYRQAPGKERELVATINDGGSTNYADSVKGRFTISRDNAKNTVYLQMNSLKPEDTAVYYCNADGGPYGAVGKSDYWGQGTQVTVSS | low polyreactivity
19 | QVQLVESGGGLVQAGGSLRLSCAASGLTSLSYAIGWYRQAPGKERELVAAITLSGCRTYYADSVKGRFTISRDNAKNTVYLQMNSLIPEDTAVYFCAVAGYWYSYGRKYLTTFEYWGQGTQVTVSS | high polyreactivity
20 | QVQLVESAAGLVQAGGSLRLSCAASGIIFPRNVMGWYRQAPGKERELVAAITYSGGRTYYADSVKGRFTISRDNAKNTVYLQMNSLKPEDTAVYYCNADFRSQPYDYWGQGTQVTVSS | low polyreactivity
21 | QVQLVKSGGGLVQAGGSLRLSCAASVRTILYNAIGWYRQAPGKESELVAAITGGGSTYYADSVKGRFTISRDNAKNTVYLQMNSLKPEDTAVYYCAADLSVVRYDYWGQGTQVTVSS | low polyreactivity
22 | QVQLVESGGGLVQAGGSLRLSCGASGRSSYVYAMGWYRQAPGKERELVAAITSSGGSTYYADSVKGRFTISRDNAKNTVYLQMNSLKPEDTAVYYCAAETYPVWGVAFYYWGQGTQVTVSS | high polyreactivity

Row | Sequence | polyreactivity (PSR sort gate)
23 | QVQLVESGVGLVQAGGILRLSCAASGFIFALNAMGWYRQAPGKERELVATIDSTSGSTYYADSVKGRFTISRDNAKNTVYLEMNSLKPEDTAVYYCAVVHAQSAPMDYWGQGTQVTVSS | low polyreactivity
24 | QVQLVESGGGLVQAGGSLRLSCADSGSIFTYTMGWYRQAPGKERELVAVISRSGGRTYYADSVKGRFTISRDNAKNTVYLQMNSLKPEDTAVYYCATDGHNGYYGRYDYWGQGTQVTVSS | high polyreactivity
25 | QVQLVESGGGLVQAGGSLRLSCAASGRTFRKYAMGWYRPAPGKERELVAAISWSGGSTRYADYVKGRFTISRDNEKNTVYLQMNSLKPEDTAVYYCNAVRRYRSTHPSYHTFNYWGQGTQVTVSS | high polyreactivity
26 | QVQLVESGGGLVQAGGSLRLSCAASGRTFRYYAMGWYRQAPGKERELVATISSGGSTNYADSVKGRFTISRDNAKNTVYLQMNSLKPEDTAVYYCNARRSTDPARYYWGQGTQVTVSS | high polyreactivity
27 | QVQLVESGGGLVQAGGSLRLSCAASGSTFDYNTMGWYRQAPGKERELVAAISESGGSTYYADSVKGRFTISRDNAKNTVYLQMNSLKPEDTAVYYCATDDFGGYFGEYDYWGQGTQVTVSS | low polyreactivity
28 | QVHLVDSGGGLVQAGGSLRLSCAASGSIISVYFMEWYRQAPGKERELVASITSGASTNYADSVKGRFTISRDNAKNTVYLQINSLKPEDTAVYYCCARDWYDGFYYWGQGTQVTVSS | low polyreactivity
29 | QVQLVESGGGLVQAGGSLRLSCAASGRIFSTYAMVWYREAPGKEMELVAAINKIGGSTYYADSVKGRFTISRDNAKNTVYLQMNSLKPEDTAVYYCAADAPYYPFRRYYYWGQGTQVTVSS | low polyreactivity
30 | QVQLVESGGGLVQAGGSLRLSCAASGFIYYGYAMGWYRQAPGKEMELVAAITSGGSTTYADSVKGRFTISRDNAKNTVYLQMNSLKPVDTAVYYGAASVCREVGWGQGTQVTVSS | high polyreactivity
31 | QVQLVESGGGLVQAGGSLRLSCAASAFTFDPYARGWYRHAPGKERELDAANSWSGGSTYYADSVKGRFTISRDHAKNSVYLQMNSLKPEDTAVYYCAAEWYNSAYYEYDYWGQGTQVTVSS | high polyreactivity
32 | QVQLVESGGGLVQAGGSLRLSCASSGSTFSSYAMGRYRQAPGKERELVAAITRGGSTNYADSVKGRFTISRDNAKNTVYLQMNSLKPEYTAVYYCAADGPIVGTMDYWGQGTQVTVSS | high polyreactivity
33 | QVQLVESGGGLVQAGGSLRLSCAASGNNFGVYAMGWYRQAPGTERELVAAIRYSTVSTYYADSVKGRFTISRDNAKNTVYLQMNSLKPEDTSVYYCAAQRRRYLPGHYYYWGQGTQVTVSS | high polyreactivity
34 | QVQLEESVGGLVQAGGSLRLSCAASGRIFVRNAMGWYRQAPGKERELVATITSIGGRTYYADSVKGRFTISRDNAKNTVYLQMNSLKPEDTAVYYCAAYNTQSYPAYLRYDYWGQGTQVTVSS | low polyreactivity
35 | QVQLVESGGGLVQAGGSLRLSCAASGFIFQYYAMGWYREAPGKERELVAAISKTGGSTYYADSVKGRFTISRDNAKNTVYLQMNSLKPEDTAVYYCAVARSAYYRGNHWGQGSQVTVSS | high polyreactivity
36 | QVQLVESGGGLVQAGGSLRLSCAASGFTFKTYAMGSYRPAPGKEREFVAAISSRGGSTYYSDSVKGRFTISRDNAKNTVYLQMHSLKPEDTAVYYCATATRPRDRYSRYGYWGQGTQVTVSS | high polyreactivity
37 | QVQLVESGGGLVQAGGSLRLSCAASGFTFSVYAMGWYRQAPGKERELVAVITKRGGSTYYADSVKGRFTISRDNAKNTVYLQMNSLKPEDTAVYYCNAYLQGKIFPYGYWGQGTQVTVSS | high polyreactivity
38 | QVQLVESGGGLVQAGGSLRLRCAASGSIFVYNARGWYRPAPGKERELVPAISKSGGRTYYADSVKGRFTISRDNAKNTVYCQMHSLKPEDTAVYYCNALAGQRQGWEYDYWGQGTQVTVSS | high polyreactivity
39 | HVQHVESGGGLVQAGGSLRLSCAASGFTFFYYTMGWYRQAPGKERELVAAISKGGGSTFYADSVKGRFTISRDNAKNTVYLQMNSLKPEDTAVYYCAASYVRGYDYWGQGTQVTVSS | high polyreactivity
40 | QVQLVESVGGLVQAGGSLRLSCAASGFTFDENAMGWYSQAPGINYSGASTYYADSVKGRFTLSRDNAKNTVYLQMNSLKQEDTAVNYCAAEVVAQLNYWGPGTQVTVSS | low polyreactivity
41 | QVHLVESGGGIVQAGGSLRLSSAATGRTFPYNAMGWYRQAPGKERELVAAISSGGSTNYADSVKGRFTISRDNAKNTVYLQMNSLKPEDTAVYYCATKYQRRPYRYYYWGQGTQVTVSS | low polyreactivity
42 | QVQLVESGGGLVQAGGSLRLSCAASGNTFVGYTMGWYRHAPGKERELVAAISWNGGTTYYADSVKGRFTISRDNAKNTVYLQMNSLKPEDTAVYYCNTRWYTRRFDYWGQGTQVTVSS | high polyreactivity
43 | QVQLVESGGGLVQAGGSLRLSCAASGRTFAVYSMGWYRQATGKERELVAVISSGGGTDYADSVKGRFRISRDNAKNTVYLQMNSLNPEDTAVYYCAADSVTFLATQPGDYWGQGTQVTVSS | low polyreactivity
